The text below walks through data of article PMC7331137.

For experiment [1], the target named is IntC-CCre tagged with FLAG (UniProt P06956).
For experiment [2] the target is unchanged. This is another data set of the same source.
For experiment [3] the target is unchanged. The source holds these as a separate data set.

In experiment [1], “NCre-IntN tagged with HA (from UniProt P06956 1-59)” gave a DsRed fluorescence from a LoxP-stop-LoxP DsRed reporter in HEK293T cells cotransfected with both constructs (none with either alone) of 99%. The substance further showed a TdTomato fluorescence in striatal neurons of Dlx6-CCre-IRES-eGFP reporter mice injected with NCre-IntN-mTagBFP2 lentivirus in experiment [2] of 78.3%. The substance further had a TdTomato expression in neurons of the central amygdala after injection of FuG-E-NCre-IntN retrograde lentivirus into the dorsal striatum of Dlx6-CCre-IRES-eGFP::LoxP-stop-LoxP-TdTomato mice in experiment [3] of 89.9%.
